This is an account of results in patent publication US20230071889A1.

In assay [1] the target is T1, CD132 receptor (Sinobiological 10555-H08B) (UniProt P31785).
T1 sequence (looked up): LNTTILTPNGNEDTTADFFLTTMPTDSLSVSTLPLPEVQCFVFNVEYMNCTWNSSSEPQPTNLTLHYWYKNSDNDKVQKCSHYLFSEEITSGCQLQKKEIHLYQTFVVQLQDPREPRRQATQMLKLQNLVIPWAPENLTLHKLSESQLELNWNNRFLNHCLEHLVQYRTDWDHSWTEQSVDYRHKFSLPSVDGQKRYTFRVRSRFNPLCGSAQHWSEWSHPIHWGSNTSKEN
As to the kind of experiment: Biacore, CD132 injected over the CD127/IL-7 complex on the chip. (In general: In SPR one partner is held on a chip, and binding of the other changes the refractive index at the surface.)

Assay [2] concerns the target T2, CD127 (Sinobiological, 10975-H03H-50) (UniProt P16871).
T2 sequence (looked up): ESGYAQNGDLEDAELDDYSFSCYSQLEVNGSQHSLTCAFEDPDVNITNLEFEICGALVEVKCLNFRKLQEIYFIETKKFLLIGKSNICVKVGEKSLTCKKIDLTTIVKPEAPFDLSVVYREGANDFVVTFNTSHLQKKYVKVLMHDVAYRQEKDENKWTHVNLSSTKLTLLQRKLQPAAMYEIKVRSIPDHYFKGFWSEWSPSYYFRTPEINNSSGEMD
Put plainly: Biacore, CD127 immobilised on CM5 chip; bivalent model.

The target in assay [3] is T1, CD132 receptor (Sinobiological 10555-H08B). As to the kind of experiment: Biacore, CD132 injected over immobilised CD127 + IgG4 alone; steady-state model; baseline, CD127 dimerizes with CD132 in the absence of IL-7.

For “IL-7 fused to Fc domain (IL7-Fc, CHI-HF-22007 Adipogen) (Fc fusion)”, the values for the Kd in assay [1] and in assay [2] were 505 nM and 6.3 nM, respectively. Regarding IgG4 alone (antibody), the Kd in assay [3] turned out to be 2500 nM.
